US20080279844

Target: T1, IκBα, P25963
T1 chain: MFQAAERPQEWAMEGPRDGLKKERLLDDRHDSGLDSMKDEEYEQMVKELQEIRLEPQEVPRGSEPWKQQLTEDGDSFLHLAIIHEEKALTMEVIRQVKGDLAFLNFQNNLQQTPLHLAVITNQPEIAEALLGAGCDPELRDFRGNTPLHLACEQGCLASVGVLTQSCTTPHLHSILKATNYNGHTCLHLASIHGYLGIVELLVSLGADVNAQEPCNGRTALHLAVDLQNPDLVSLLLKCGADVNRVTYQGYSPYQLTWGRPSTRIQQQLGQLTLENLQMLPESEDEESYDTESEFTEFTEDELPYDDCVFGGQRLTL

B1: Tissue transglutaminase (TG2, EC 2.3.2.13) (protein)
chain: AEELVLERCDLELETNGRDHHTADLCREKLVVRRGQPFWLTLHFEGRNYEASVDSLTFSVVTGPAPSQEAGTKARFPLRDAVEEGDWTATVVDQQDCTLSLQLTTPANAPIGLYRLSLEASTGYQGSSFVLGHFILLFNAWCPADAVYLDSEEERQEYVLTQQGFIYQGSAKFIKNIPWNFGQFEDGILDICLILLDVNPKFLKNAGRDCSRRSSPVYVGRVVSGMVNCNDDQGVLLGRWDNNYGDGVSPMSWIGSVDILRRWKNHGCQRVKYGQCWVFAAVACTVLRCLGIPTRVVTNYNSAHDQNSNLLIEYFRNEFGEIQGDKSEMIWNFHCWVESWMTRPDLQPGYEGWQALDPTPQEKSEGTYCCGPVPVRAIKEGDLSTKYDAPFVFAEVNADVVDWIQQDDGSVHKSINRSLIVGLKISTKSVGRDEREDITHTYKYPEGSSEEREAFTRANHLNKLAEKEETGMAMRIRVGQSMNMGSDFDVFAHITNNTAEEYVCRLLLCARTVSYNGILGPECGTKYLLNLNLEPFSEKSVPLCILYEKYRDCLTESNLIKVRALLVEPVINSYLLAERDLYLENPEIKIRILGEPKQKRKLVAEVSLQNPLPVALEGCTFTVEGAGLTEEQKTVEIPDPVEAGEEVKVRMDLLPLHMGLHKLVVNFESDKLKAVKGFRNVIIGPA
For B1, the “in vitro BPA labeling of IκBα immunoprecipitates in the presence of Ca2+ (3 mM), probed with horseradish peroxidase-conjugated streptavidin” value was “demonstrated the presence of high-molecular-weight forms (dimeric and polymeric) of IκBα”.
